Assays:
[1] = system: β-etherase; experiment: Phenol oxidase assay (substrate specificity) with β-etherase; assay type: biochemical, P. putredinis NO1; settings: 1 mM substrate, 50 mM Tris pH 8.5, room temperature
Description: Specificity was investigated by incubating 1 mM of each substrate of interest with the enzyme in 100 µL Tris pH 8.5 buffer at room temperature. Activity was determined by monitoring the change in Ultraviolet-Visible absorbance spectra (220 - 750 nm) of aliquots using a NanoDrop 8000 Microvolume UV-Vis spectrophotometer (Thermo Scientific). Scans were performed at regular intervals over 2 h.

[2] = system: tyrosinase; settings: literature statement; cited from earlier work
[3] = Fluorescence assay for β-etherase (4MU release from GGβ4MU); assay type: biochemical
Description: Enzyme activity was measured in 1 mL reaction containing 10 µL 4MU/GGβ4MU (synthetic fluorescent substrate 10 mM) and appropriate concentration of pure protein in 50 mM Tris-HCI, 100 mM NaCl, pH 8.5, 5 mM CuSO4. The reaction was incubated at 30° C. for 1 h. Formation of 4-methylumbelliferone (4MU) was monitored using an RF-1500 fluorometric analyzer. After 0 h and 1 h of incubation 100 µL of the reaction mixture was taken and added to 50 µL of 100 mM glycine-NaOH buffer (pH 10.0). One unit of the enzyme was defined as the amount that released 1 nmol of 4 MU/h from the substrate. Five replicate were taken for each sample, and control reactions of boiled enzyme and wheat straw treated with buffer only were also performed.
The effect of pH and temperature on enzyme activity was investigated by varying the pH of the reaction mixtures using 50 mM Tris-HCI buffer from pH 7.0 to 9.5, 50 mM glycine-NaOH buffer at pH range 9.0 to 10.5 and 50 mM Na2HPO4-NaOH buffer at pH range 10.5 to 12. The optimum temperature of enzyme activity was determined at various temperatures ranging from 20° C. to 70° C. Assays were performed as described in the previous section.

[4] = Release of tricin and lignin units from wheat straw (HPLC); assay type: biochemical; settings: 16 h, pH 8.5, 30° C.
Description: Wheat straw was ground to <1 mm using a cyclone mill (Retsch) and washed several times with 50 mM Tris pH 8 to remove residual surface sugars. […] Reactions were incubated overnight at 30° C. with shaking. Control reactions were performed using wheat straw incubated with boiled β-etherase or with buffer only. Tricin was extracted based upon Karambelkar.^70 Briefly, 1 mL of ethyl acetate was added to 100 µL of the reaction supernatant. This was homogenized before being centrifuged for 5 min at 13,000 rpm. The ethyl acetate layer was transferred into new tubes and evaporated using a centrifugal evaporator at 55° C. before being resuspended in 100 µL 50% H2O, 50% acetonitrile. This was analyzed with a Waters 2996 photodiode array detector Separations Module HPLC system, column used was C18-5 µM preparative column (4.6 × 250 mm, Waters, X-Bridge, Made in Ireland). The mobile phase was 0.1% acetic acid in water (A), and methanol (B) and a linear gradient was used; 95% A (5 min), 70% A (25 min), 0% A (30 min), 95% A (5 min), the flow rate was 1.0 mL/min. After identification through comparisons with authentic standards, based on retention time and UV spectrum, peaks were manually collected and the mass confirmed with mass spectroscopy.

[5] = Release of products from sugarcane bagasse (HPLC); assay type: biochemical; settings: 16 h, pH 8.5, 30° C.
[6] = Release of products from rice straw (HPLC); assay type: biochemical; settings: 16 h, pH 8.5, 30° C.
[7] = 2D HSQC NMR of enzyme lignins from treated wheat; settings: HSQC volume-integrals, S + G + H = 100% basis; control nearly 12%
Description: Enzyme lignins, representing essentially all of the lignin in the sample, were prepared following ball-milling of the cell wall isolate as previously described.(75-77, 78)
2D NMR of enzyme lignins (EL) in 4:1 v/v DMSO-d6:pyridine-d5 were acquired on a Bruker Biospin (Billerica, MA) Avance 700 MHz spectrometer equipped with a 5-mm QCI ^1H/^31P/^13 C/^15 N QCI cryoprobe with inverse geometry (proton coils closest to the sample), as described previously.(76,77) Volume-integration of contours in HSQC plots used TopSpin 4.07 (Mac version) software, and no correction factors were used. The data represent volume-integrals only, and data are presented on an S + G + H = 100% basis (FIG. 17); pCA, and tricin T units are always terminal and are, therefore, likely overestimated.(77) Data assignments here were made by comparison with published data from other samples from our lab, including in the various tricin-related papers.(71-74, 79, 80)

[8] = Saccharification after β-etherase pretreatment, sugarcane bagasse (HPAEC); assay type: biochemical; settings: 16 h β-etherase pretreatment, then commercial cellulases
Description: (§1) For saccharification reactions, biomass pretreated with β-etherase was incubated with 1.2 µg/mL enzyme cocktail (4:1 Celluclast: novo 188 (Novozymes)) in 50 mM sodium acetate at pH 4.5 and incubated overnight at 37-40° C. with shaking. This was performed alongside a control reaction with buffer only. Solids were removed by centrifugation, and residual protein was precipitated with 80% ethanol. The supernatant, containing mono- and oligosaccharides, was dried with a centrifugal evaporator before samples were resuspended in ultra-pure water and filtered through a 0.2 µm polytetrafluoroethylene (PTFE) filter. Five replicates from each sample were investigated, and carbohydrate composition was analyzed by high-performance anion-exchange chromatography (HPAEC).
High-performance anion-exchange chromatography was used to analyze monosaccharide release after saccharification. Briefly, 5 µL of samples or standards were injected on a CarboPac PA20 3 × 150 mm analytical column via a CarboPac PA20 3×0 mm guard column using Chromeleon 6.8 Chromatography Data Systems software (Dionex). Sugars were separated at a flow rate of 0.4-0.5 mL min^-1 at a temperature of 25° C. as follows: after equilibration of the column with 100% H2O, samples were separated in a linear gradient of 100% H2O to 99%-1% of H2O-0.2 M NaOH for 5 min, then constant for 10 min, followed by a linear gradient to 47.5%-22.5%-30% of H2O-0.2 M NaOH-0.5 M NaOAc/0.1 M NaOH in 7 min and then kept constant for 15 min. After washing the column with 0.2 M NaOH for 8 min it was re-equilibrated with 100% H2O for 10 min before the injection of the next sample. Carbohydrates were detected by ICS-3000 PAD system with an electrochemical gold electrode, identified by comparison with retention times of external standards (arabinose, fucose, galactose, glucose, glucuronic acid, mannose, rhamnose, and xylose) and quantified through the integration of these known standards.

[9] = Saccharification after β-etherase pretreatment, wheat straw (HPAEC); assay type: biochemical; settings: 16 h β-etherase pretreatment, then commercial cellulases
Description: as §1
(§2) High-performance anion-exchange chromatography was used to analyze monosaccharide release after saccharification. Briefly, 5 µL of samples or standards were injected on a CarboPac PA20 3 × 150 mm analytical column via a CarboPac PA20 3×0 mm guard column using Chromeleon 6.8 Chromatography Data Systems software (Dionex). […] Carbohydrates were detected by ICS-3000 PAD system with an electrochemical gold electrode, identified by comparison with retention times of external standards (arabinose, fucose, galactose, glucose, glucuronic acid, mannose, rhamnose, and xylose) and quantified through the integration of these known standards.

[10] = Saccharification after β-etherase pretreatment, rice straw (HPAEC); assay type: biochemical; settings: 16 h β-etherase pretreatment, then commercial cellulases
Description: as §1, §2

[11] = purification step: Culture filrate
[12] = purification step: Q (anion-exchange)
[13] = purification step: S.E (size-exclusion)

Molecule: O=C(O)c1ccc(O)cc1 [4-Hydroxybenzoic acid]
- activity of the β-etherase against the substrate [1]: showed activity
- tyrosinase inhibition [2]: known to be tyrosinase inhibitors

Molecule: N[C@@H](Cc1ccc(O)c(O)c1)C(=O)O [L-Dopa, 3,4-dihydroxy-L-phenylalanine]
- activity of the β-etherase against the substrate [1]: did not display activity

Molecule: N[C@@H](Cc1ccc(O)cc1)C(=O)O [L-tyrosine]
- activity of the β-etherase against the substrate [1]: did not display activity

Molecule: O=c1c(O)c(-c2ccc(O)c(O)c2)oc2cc(O)cc(O)c12 [Quercetin]
- activity of the β-etherase against the substrate [1]: showed activity
- tyrosinase inhibition [2]: known to be tyrosinase inhibitors

Molecule: COc1cc(-c2cc(=O)c3c(O)cc(O)cc3o2)cc(OC)c1O [Tricin, 5,7-dihydroxy-2-(4-hydroxy-3,5-dimethoxyphenyl)-4H-chromen-4-one]
- type of tyrosinase inhibition [2]: binds non-competitively

Molecule: COc1cc(C(=O)O)ccc1O [Vanillic acid]
- activity of the β-etherase against the substrate [1]: showed activity
- tyrosinase inhibition [2]: known to be tyrosinase inhibitors

Molecule: O=C(O)/C=C/c1ccc(O)cc1 [p-coumaric acid]
- type of tyrosinase inhibition [2]: mixed-type inhibition effect

B1: β-etherase: copper-containing extracellular β-etherase of Parascedosporium putredinis NO1 (c2092), independent of NAD+ and glutathione, expressed recombinantly in E. coli (protein, listed as Parascedosporium putredinis)
chain: MPSAKRLLGLLLAATAAVGVAAQEPALTEDDFSIPEIEGGDALAQLAQLAADSSQETALRMAKRGLNSGCSPSQIKVRREWRTLTSAQRKQYIASVKCLQTKPSFFDPNIIPAAKSLFDDFVGVHVFQTGSIHLTATFLTWHRYFVYTYETKLREECGYTGPLPYWEWGLDVNNPNASPVFDGSDTSLSGNGAFFAHEGIQMVQPINGNILKLPPGNGGGCVTKGPFKDMKVHFGTIILPVYGQPILSGVENPIADNERCLKRDLNAGIAKRFTSFLNSTSVILKNNNIEMFQAHLQGDDRYVLNQLGVHGGGHYTIGGDPGGDPFISPGDPAFYLHHAQIDRIYWIWQMLDFKNRQGVHGTATLQNNPPSANVTVEDTIDLSPLAPPVKIKDLMNTVGGSPLCYIYL
- temperature of maximum activity ([3]; GGβ4MU assay, 20° C. to 70° C. tested): 60 °C
- pH of maximum activity ([3]; GGβ4MU assay, pH 7.0 to 12 tested): 10
- Activity (mU) (nmol/mg/hr) [3, 11]: 7500 mU
- Specific (U/mg) [3, 11]: 7.32 U/mg
- Activity (mU) (nmol/mg/hr) [3, 12]: 2600 mU
- Specific (U/mg) [3, 12]: 88 U/mg
- Activity (mU) (nmol/mg/hr) [3, 13]: 1950 mU
- Specific (U/mg) [3, 13]: 139 U/mg
- β-etherase activity (fluorescence released after incubation with GGβ4MU) ([3]; recombinant purified protein from E. coli): confirmed
- p-coumaric acid, vanillin and p-hydroxybenzaldehyde in reaction supernatant of wheat straw [4]: not enriched
- tricin in reaction supernatant of wheat straw vs buffer alone [4]: significantly higher concentration of tricin
- p-coumaric acid release from sugarcane bagasse [5]: significantly enriched
- tricin released from sugarcane bagasse compared to wheat straw [5]: smaller amount of tricin was released
- product release from rice straw [6]: little difference in product release
- relative tricin ether level in the lignin after treatment [7]: about 8.5%
- increase in arabinose after saccharification vs untreated control [8]: 23 fold
- increase in glucose after saccharification vs untreated control [8]: 2 fold
- increase in xylose after saccharification vs untreated control [8]: 5 fold
- increase in glucose release after saccharification [9]: 1.2 fold
- improvement in saccharification [10]: no improvement in saccharification

— US20230203461A1, “BETA-ETHERASES FOR LIGNIN DEPOLYMERISATION” (The University of York, priority 2020, published 2023)
